These results are taken from patent CN115991785A (SHANGHAI MIAOJU BIOTECHNOLOGY CO LTD; UNIV SHANGHAI JIAOTONG, dated 2023).

Usually Kd stands for the concentration at which binding is half-saturated. Read a low Kd as higher affinity.

Test [1] has as its target T1, MATN3-Fc抗原 (MATN3-Fc antigen) (human, UniProt O15232 29-486, limits assumed).
T1 construct: not shown: Fc part
T1 sequence (looked up): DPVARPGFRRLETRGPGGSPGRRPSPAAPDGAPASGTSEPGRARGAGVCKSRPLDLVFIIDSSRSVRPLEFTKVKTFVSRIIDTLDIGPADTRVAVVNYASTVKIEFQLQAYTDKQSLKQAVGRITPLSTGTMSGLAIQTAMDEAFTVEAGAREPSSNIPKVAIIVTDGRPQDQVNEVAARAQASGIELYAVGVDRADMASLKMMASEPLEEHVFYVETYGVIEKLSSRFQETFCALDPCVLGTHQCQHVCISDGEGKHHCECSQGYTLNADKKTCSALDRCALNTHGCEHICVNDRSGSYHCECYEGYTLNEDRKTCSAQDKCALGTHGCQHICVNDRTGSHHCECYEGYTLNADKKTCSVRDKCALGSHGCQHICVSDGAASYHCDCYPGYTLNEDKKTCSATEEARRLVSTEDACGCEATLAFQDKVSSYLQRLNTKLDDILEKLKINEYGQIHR
As to the kind of experiment: SPR (Biacore, CM5 chip, amine coupling, 1:1 binding model).

In test [2] the target is CD34-Fc抗原 (CD34-Fc antigen). The test is described as above.
Sequence of CD34-Fc抗原 (CD34-Fc antigen) (P28906 32-290): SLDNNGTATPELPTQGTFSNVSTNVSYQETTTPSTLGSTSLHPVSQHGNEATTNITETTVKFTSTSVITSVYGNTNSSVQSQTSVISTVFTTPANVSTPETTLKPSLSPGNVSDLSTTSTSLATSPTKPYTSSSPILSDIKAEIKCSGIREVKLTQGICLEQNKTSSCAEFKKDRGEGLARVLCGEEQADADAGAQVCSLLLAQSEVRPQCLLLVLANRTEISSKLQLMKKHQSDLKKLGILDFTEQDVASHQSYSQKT

B1: CD34×MATN3双特异性抗体 (CD34×MATN3 bispecific antibody, IgG1-scFv form) (bispecific antibody)
chain 1: EIQLQQSGPELMKPGASVKISCKASGYSFTSYYMHWVKQSQGKSLEWIGFIDPFNGGITYNQKFKGKATLTVDRSSSTAYMHLRSLTSEDSAVYYCARCYYNYDDEGRAMDYWGQGTSVTVSS
chain 2: DIQMTQSPSSLSASLGERVSLTCRASQDIGSSLNWLQQGPDGTFKRLIYATSSLDSSVPKRFSGSRSGSDYSLTISSLESEDFVDYYCLQYASSPYTFGGGTKLEIKR
chain 3: EVQLVQSGAEVKKPGASVKVSCKASGGTFSSYAISWVRQAPGQGLEWMGGIIPIFGTANYAQKFQGRVTITADKSTSTAYMELSSLRSEDTAVYYCARGQGYWFDPWGQGTLVTVSS
chain 4: DVQLTQSPSSLSASVGDRVTITCQASQDISNYLNWYQQKPGKAPKLLIYDASNLETGVPSRFSGSGSGTDFTFTISSLQPEDIATYYCQQYDNLPLTFGGGTKLEIKR
In the case of B1, the Kd worked out at 0.00895 nM in test [1] and 8.53 nM in test [2].
